Here are results for 1 molecule from US20060287510A1 (Genentech, published 2006).

The target of this assay is T1, recombinant human insulin-like growth factor-1 (rhIGF-1) (human, UniProt P05019 49-118).
T1 construct: Soluble protein used for crystallization, sedimentation equilibrium and NMR; It was uniformly 13C/15N labelled for the NMR complex with IGF-F1-1; also called human IGF-1; 13C/15N IGF-1
The assay is described as follows: NMR structure of the complex (figure legend).

T1 sequence (P05019 49-118): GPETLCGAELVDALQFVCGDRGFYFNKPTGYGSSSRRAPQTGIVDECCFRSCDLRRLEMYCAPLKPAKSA

B1: phage-derived IGF-1 antagonist peptide IGF-F1-1 (peptide)
peptide: RNCFESVAALRRCMYG
notes: Unlabelled peptide mixed in slight molar excess with 1.5 mM 13C/15N IGF-1 for NMR
As to B1, the binding result is “binds”.
